Laboratory results reported in patent US20070190045A1, “Anti-CD3 and antigen-specific immunotherapy to treat autoimmunity” (priority 2004, published 2007).
Read-outs that look alike come from different tables or passages of the source.

How the values were obtained:
PBMC [1] = assay: Induction of regulatory T cells in vitro with OKT3 then IL-10/IL-2; inhibition of PHA-stimulated PBMC proliferation; type: cell-based, human
Source text: See text in Example 4 for details of the experimental procedure. […] In the left panel of FIG. 10A, responder cells alone were stimulated with PHA and the percentage of proliferating cells was 67%. In the right panel of FIG. 10A, responder cells were stimulated with PHA in the presence of cells treated with anti-CD3 mAb/IL-10/IL-2, and the percentage of proliferating cells was 43%. The number of proliferating responder cells (i.e. diluted CFSE (carboxy-fluorescein diacetate, succinimidyl ester)) in the presence of the added cells is shown. […] In the left panel of FIG. 10B, responder cells alone were stimulated with PHA and the percentage of proliferating cells was 50%. In the right panel of FIG. 10B, responder cells were stimulated with PHA in the presence of IL-10/IL-2 cultured cells, and the percentage of proliferating cells was 54%.
3. Treatment with anti-CD3 mAb induces regulatory T cells in vitro: In order to obtain sufficient numbers of cells for studies of functional properties, anti-CD3 mAb has been utilized to expand regulatory T cells in vitro. PBMC were cultured for 10 days with OKT3 mAb and then CD4+ cells were isolated by sorting. They were then cultured for 19 days with IL-10 and IL-2. These cells were then added to cultures of PBMC from the same individual, stimulated with PHA (phytohemagglutinin). […] The majority (94%) of the CD4+ cells that inhibit PBMC proliferation are CCR4+, 46% are CD62L+, and 93% are CD45RO+. About 5% of the cells are GITR+.

T cells = conditions: cited from earlier work
[2] = tested on: patients with new onset Type 1 diabetes; assay: Side effects of hOKT3γ1(Ala-Ala) in the Phase I/II trial (WHO Criteria); type: in vivo, human
Source text: The dosing regimen was modified from a 14-day to a 12-day course after treatment of the first 12 patients.

[3] = tested on: patients with new onset Type 1 diabetes; assay: Phase I/II trial of hOKT3γ1(Ala-Ala) in new onset Type 1 diabetes: C-peptide response to MMTT; type: in vivo, human; conditions: patients with new onset T1D
CD4+IL-10+ T cells = assay: Induction of CD4+IL-10+ cells in vivo in treated patients (intracellular cytokine staining); design: species or system human
Source text: Cells were isolated from patients after treatment with the mAb and stained for intracytoplasmic IL-10 and IFN-γ without further activation ex vivo. IL-10+CD4+ cells were identified in 5/6 patients within 1 week after the last dose of mAb.
2. […] PBMC were harvested and frozen from a patient treated with hOKT3γ1(Ala-Ala) at the conclusion of mAb treatment. These cells, as well as those harvested before mAb treatment were thawed and stained for intracellular cytokines, IL-10 and IFN-γ. Markers were placed around surface molecules CD4 and CD3. Cells harvested from patients after anti-CD3 mAb treatment were producing IL-10 in vivo. […] These induced cells were IFN-γ negative, predominantly CD45RO+, and generally CCR4+. Thirteen percent of these cells produced TGF-β by surface staining.

PBMC [4] = assay: Inhibitory properties of cells grown in hOKT3γ1(Ala-Ala) and IL-10/IL-2 on PHA-stimulated PBMC; type: cell-based, human; conditions: 10 days with mAb, sorted, 2 weeks IL-10 and IL-2
Description: Other cells were cultured in IL-10/IL-2 (FIG. 11B), sorted, and then cultured for an addition 19 days in IL-10/IL-2. Both groups of cells were added to fresh PBMC. Uptake of 3H-thymidine was measured 72 hrs after the addition of PHA.
These cells were then cultured for an additional 2 weeks in IL-10 and IL-2 and then added to PBMC from the same donor and stimulated with PHA.

NOD mice = conditions: cited from earlier work
[5] = after OKT3 10 days, IL-10/IL-2 19 days
[6] = Phase I/II trial, 12 or 14-day regimen

With “OKT3 mAb: murine anti-CD3 mAb; in FIG. 10 cells cultured with it, then with IL-10 and IL-2” as the substance, how does the “percentage of proliferating responder cells” value (PBMC [1]; PHA stimulation in presence of added cultured cells, responder cells alone 67% (FIG. 10A) or 50% (FIG. 10B)) read?
The value was 43%.

What about the “inhibitory CD4+ cells that are CCR4+” value (PBMC [1]; [5]) of the same substance?
The value was 94%.

What about the “inhibitory CD4+ cells that are CD45RO+” value (PBMC [1]; [5]) of the same substance?
The value was 93%.

What about the “inhibitory CD4+ cells that are CD62L+” value (PBMC [1]; [5]) of the same substance?
Its value is 46%.

What about the “inhibitory CD4+ cells that are GITR+” value (PBMC [1]; [5]) of the same substance?
Its value is “About 5%”.

What about the “effect of added cultured cells on proliferation of PHA-stimulated CD4+ T cells/PBMC” value (PBMC [1]; cells added at ratio 1:5) of the same substance?
The value was “inhibited proliferation”.

With “hOKT3γ1(Ala-Ala): humanized anti-CD3 mAb with the same CDR region as OKT3 and a mutation in the Fc portion to reduce FcR binding” as the substance, how does the “cytokine production after activation signal to T cells” value (T cells; compared with OKT3, Herold et al. 2003) read?
The value was “relatively greater production of IL-10 instead of IFN-γ”.

And the “T cell activation compared with OKT3” value (T cells; in vitro or in vivo, Xu et al. 2000)?
The value was “does not cause the same T cell activation”.

What about the “Arthralgia, Mild” value [2, 6] of the same substance?
Its value is 8%.

And the “Arthralgia, Moderate” value [2, 6]?
The value was 0.

What about the “Arthralgia, Severe” value [2, 6] of the same substance?
Its value is 0.

And the “Diarrhea, Mild” value [2, 6]?
The value was 0.

And the “Diarrhea, Moderate” value [2, 6]?
Its value is 0.

And the “Diarrhea, Severe” value [2, 6]?
The value was 0.

And the “Dyspnea, Mild” value [2, 6]?
Its value is 8%.

What about the “Dyspnea, Moderate” value [2, 6] of the same substance?
Its value is 0.

And the “Dyspnea, Severe” value [2, 6]?
Its value is 0.

And the “Fever, Mild” value [2, 6]?
The value was 17%.

And the “Fever, Moderate” value [2, 6]?
Its value is 58%.

And the “Fever, Severe” value [2, 6]?
Its value is 0.

And the “Headache, Mild” value [2, 6]?
The value was 33%.

What about the “Headache, Moderate” value [2, 6] of the same substance?
The value was 0.

And the “Headache, Severe” value [2, 6]?
Its value is 0.

And the “Hypotension, Mild” value [2, 6]?
Its value is 0.

What about the “Hypotension, Moderate” value [2, 6] of the same substance?
The value was 0.

What about the “Hypotension, Severe” value [2, 6] of the same substance?
Its value is 0.

What about the “Myalgia, Mild” value [2, 6] of the same substance?
Its value is 17%.

What about the “Myalgia, Moderate” value [2, 6] of the same substance?
The value was 0.

And the “Myalgia, Severe” value [2, 6]?
Its value is 0.

And the “Nausea, Mild” value [2, 6]?
Its value is 8%.

What about the “Nausea, Moderate” value [2, 6] of the same substance?
The value was 0.

What about the “Nausea, Severe” value [2, 6] of the same substance?
The value was 0.

And the “Rash, Mild” value [2, 6]?
The value was 58%.

What about the “Rash, Moderate” value [2, 6] of the same substance?
The value was 25%.

What about the “Rash, Severe” value [2, 6] of the same substance?
The value was 0.

And the “Vomiting, Mild” value [2, 6]?
The value was 8%.

And the “Vomiting, Moderate” value [2, 6]?
The value was 0.

And the “Vomiting, Severe” value [2, 6]?
The value was 0.

What about the tolerability ([2]; data from patients with T1DM) of the same substance?
The tolerability was “well tolerated”.

And the “duration of functional immunologic tolerance after treatment” value [3]?
Its value is “at least 1 year”.

And the “induced CD4+IL-10+ cells producing TGF-β by surface staining” value (CD4+IL-10+ T cells; PBMC at conclusion of mAb treatment)?
Its value is “Thirteen”.

And the “patients in whom IL-10+CD4+ cells were identified” value (CD4+IL-10+ T cells; within 1 week after the last dose of mAb)?
Its value is 5/6.

What about the “effect of CCR4+ cells from cultures on proliferation of PHA-stimulated PBMC” value (PBMC [4]) of the same substance?
Its value is “inhibited proliferation”.

What does the source list for “insulin B9-23 peptide: peptide comprising amino acids 9-23 of the insulin B chain (SHLVEALYLVCGERG)”?
anaphylaxis (NOD mice; mouse, in vivo): anaphylaxis; anaphylaxis (NOD mice; reports in NOD mice (Liu et al. 2002; Pedotti et al. 2003), listed as insulin peptide): fatal anaphylactic reactions

Which anaphylaxis (NOD mice; reports in NOD mice (Liu et al. 2002; Pedotti et al. 2003)) does the source give for “rhGAD65: human GAD 65 protein, obtained from Diamyd” here?
The anaphylaxis was “fatal anaphylactic reactions”.
